# According to the supplement of paper PMC12042874:
# ± gives the uncertainty stated by the source.
# Experiment: amyloid nucleation score (Sup35N fusion, yeast selection) (log enrichment); library NNK1; higher = more nucleation; inactive = no reads after selection
# How it was run: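 Output and input plasmid inserts were sequenced by Illumina after psi-negative yeast carrying Sup35N fused to peptides of 20 random codons had been induced 24 hours with 100 μM copper sulfate and grown 7 days at 30°C on medium lacking adenine and uracil. The nucleation score is the DiMSum log enrichment of output over input reads, centred on the mode score of non-aggregating sequences. Sequences with under 100 input reads were excluded.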
row,Substance,amyloid nucleation score
1,SMGWYGYFLYLNCDDSFPYW,3.79 ± 0.069
2,GWWGHGFALRSFVLIAHLDV,0.06 ± 0.72
3,KCYIVSLNNVGCFTNASS,5.13 ± 0.072
4,VRDSGRIGMFKMGKV,-0.824 ± 0.88
5,CVCLRGDKGPLSRLRLRSSS,0.254 ± 1
6,GQFSRSCGTVHNQSVYRRCL,1.5 ± 0.48
7,NFVARSLLPNILAGLRGTGC,-0.139 ± 0.59
8,ISPRHNYPQILMVLLIKVYF,-1.33 ± 1.3
9,NLMEKRSLRAIRWIVRSWAG,0.839 ± 0.62
10,GLFTVNDV,0.374 ± 0.36
11,FTSLYSNILHKSTCLQ,0.288 ± 0.9
12,KAVYVVNGLFVHCVTR,0.267 ± 0.21
13,IFRTIERTVSIFNRSSR,0.222 ± 0.72
14,FTQRSSVR,0.651 ± 0.7
15,FFLTDITTLHYQSRNRLFLT,-0.581 ± 0.23
16,FTCLVNSNSPL,0.606 ± 0.71
17,HQLAFYRFCIASSCSWAYLS,0.825 ± 0.41
18,LELSKTISMPVSMNRFWVIR,-1.39 ± 1.2
19,IECLLDRILDTLYVRLNFIG,0.616 ± 0.79
20,SSAVD,0.329 ± 1.1
21,MVNWEARQ,0.862 ± 0.64
22,QYSCGSYYLERSGNVSRRKS,-0.084 ± 1.6
23,WRSSHINLGGIFRLSHTIYC,-0.16 ± 0.38
24,TGRAPSVLHNKR,-0.842 ± 0.64
25,FSASLNDLGLQKRVNVSVD,-0.413 ± 0.49

row,Substance,amyloid nucleation score
1,YYFEVAVGQMSFTANVLVLS,2.34 ± 0.28
2,SCVRCQLS,7.454 ± 0.05
3,TFCLLSINLEFINVLRLFKS,3.58 ± 0.12
4,SNSNTIP,-0.676 ± 0.98
5,QTDLLYSIYRSKDNSGLNLV,0.75 ± 0.56
6,FCLIFDGC,inactive
7,VSMRN,0.305 ± 0.21
8,SQLNCIDRTMGYDDRMEIRS,0.014 ± 0.42
9,GYIDFCFLWD,-0.333 ± 0.21
10,LTYSPWGCWIYMCYGERFWR,7.883 ± 0.062
11,LCSIKNSLMECLWYDL,-0.177 ± 0.33
12,SAICRYVF,0.768 ± 0.66
13,SWNFTLLD,inactive
14,GIVRVKSTCERSPDSATYDL,-0.205 ± 0.91
15,TFTLNFCGLQF,7.124 ± 0.059
16,TFHNSYLYGTRNVWMLYSVR,3.47 ± 0.091
17,LMSTVIVESVVIWGMAARVQ,2.62 ± 0.11
18,FLVWIMGSFPTGRGANRRNS,-0.465 ± 0.51
19,THVIRVGNQRSLRVFSRGVS,1.32 ± 0.41
20,DIYIMSNGLGYYFFSTNVRM,2.55 ± 0.19
21,LLVVIQICLM,2.9 ± 0.14
22,SHIMRRFLWVELAQ,-1.18 ± 1.1
23,KDGFTSRAWPHMFKSLRSQL,1.07 ± 0.63
24,NFRGLRLSKIYLLHHAGNLW,0.533 ± 0.47
25,FFALIYI,0.357 ± 0.36

row,Substance,amyloid nucleation score
1,GAVIRRWVIGSGALRDSCND,0.382 ± 1.2
2,PYLNY,-0.153 ± 0.43
3,ISNDYGATMFNLGCYI,1.17 ± 0.18
4,KNFRRYWGPSLIEIG,1.13 ± 0.85
5,FIWSLVGAQAQSTNRVHHLS,1.3 ± 0.67
6,QMIMAMNSFLISYLNHMWPG,2.13 ± 0.1
7,ETARLCRWSYK,2.22 ± 0.18
8,IKLFLRNIV,-0.252 ± 0.59
9,PCTLGFVSSPSDG,0.524 ± 0.46
10,NLMYAGIRLKGEICTNQVSF,0.371 ± 0.16
11,PVMSRPAARMMGDSCHWSNR,-0.585 ± 0.8
12,KTCWTILSVLLTLK,0.489 ± 0.58
13,YFEFSIHSQRYIQWSHYLVL,-1.05 ± 1.7
14,SNSGIKGFGGMIPRV,3.92 ± 0.1
15,LLMNQV,0.715 ± 0.5
16,FHPAMVVICILWHKR,1.62 ± 0.37
17,PGSIYMSPGCGYIQAVRDHI,-0.205 ± 0.35
18,FVSPVTSSQNSPVIVVRSLL,-0.561 ± 0.48
19,KLNLKFYAFYNM,5.49 ± 0.073
20,RETYLALRRYSDLTFINRTL,1.21 ± 0.29
21,GRIYLVWVDSTCRRVCKTLV,0.082 ± 0.29
22,WNSSFLHRLWEGSNLSARCC,inactive
23,SCTVLWDKFDRLLWCSK,inactive
24,YAKVLTK,-0.104 ± 0.33
25,WDKFC,-1.16 ± 0.88

row,Substance,amyloid nucleation score
1,FSVNILQQFIMGQSRICVGA,-0.044 ± 0.38
2,IRTVAR,0.142 ± 0.38
3,TDAQWGIFYDENIYPLDVFC,0.075 ± 0.33
4,TDVMSHGSAETGWCFLMSAF,0.124 ± 0.7
5,PHPPAPKK,0.067 ± 0.59
6,TKMVWASALWAHSPVMY,0.724 ± 1.2
7,NSMANREYGYIELDWV,inactive
8,DMYYNQTRVQKPPVMPQSLK,-0.667 ± 0.78
9,INLVTKYHLSITCSHSCQA,7.204 ± 0.05
10,SWRGICV,inactive
11,RLYKN,0.161 ± 0.9
12,DSSHVRLWQYWIMWMLVVNA,1.06 ± 0.39
13,QLSFCYHLCWVICEGMVLEV,-0.245 ± 0.42
14,VVRAFLTLILAVIDEENGSE,-1.42 ± 2.7
15,FDSVESRTAPTRMILLRTLF,inactive
16,FEHVPLFTTMPIEEFYRIVY,0.262 ± 0.28
17,SDYRRPKEPVSS,3.01 ± 0.16
18,TVRLTRTRV,-0.474 ± 0.86
19,GLYYSFRFYTFSVYRALRGS,-0.392 ± 1.1
20,DCSFRCMYAIMLYVLCLSHN,0.422 ± 0.35
21,SICSFLFR,3.69 ± 0.093
22,FIRIVRIYSLEFALYLGVFQ,4.51 ± 0.05
23,VISMTKMLAWFTGLVYGYYG,-0.21 ± 0.35
24,WMVSSVIRARGL,3.23 ± 0.12
25,WCTATGVSRFTMGIKTCHCL,0.738 ± 0.38

row,Substance,amyloid nucleation score
1,PCSQPFT,-0.154 ± 0.45
2,SMVLFGRISWIGEVLLL,4.99 ± 0.089
3,RDSGLVGIPLTRTRIVKLST,-0.35 ± 0.56
4,FASRNISG,-0.054 ± 0.5
5,VHVFSCLCPLLGSMIFLWMV,-0.871 ± 0.68
6,NSCWVEKSNTV,0.043 ± 0.62
7,SMRIFMMLQWYRGSNLCFFH,0.537 ± 1.1
8,VARTW,0.602 ± 0.57
9,VKVIKLRHSLGTFFCSAQLQ,inactive
10,TSAVQIVTLQLVLSWMRYHM,1.02 ± 0.28
11,ECVKTVTLVNYRVLRWSSVC,0.129 ± 0.35
12,TSAVSSCDFRKRWCCSSFHW,0.665 ± 0.24
13,PAVCLCNGRMDVSKNLWLCF,7.445 ± 0.061
14,TGTPYLLHLNWNLGSGMSGT,0.451 ± 0.2
15,VSYYCAQALVLRIPEEWATE,-0.168 ± 1.3
16,LCAFMSYLSSIFSRYNCFYV,0.268 ± 0.19
17,NMSINI,inactive
18,SEEGMCSSMGVD,inactive
19,TAESQAKQLSSNRKVGLTPS,0.549 ± 0.27
20,VVIVN,0.439 ± 0.47
21,ANFGFWFAFYSAARSDRTSL,-0.421 ± 1.2
22,LPYNHTQTVMDFIYFVFWLL,0.698 ± 0.24
23,LSCLYDDCC,1.05 ± 0.61
24,PILFYDQSFLILWQINGAGG,inactive
25,VRLFV,2.14 ± 0.65

row,Substance,amyloid nucleation score
1,RLRFLNYTDAG,-1.2 ± 1.5
2,ITQIADLWHKMT,-0.954 ± 0.89
3,SSWQGLRNLHGSYEDQINVK,4.17 ± 0.073
4,SLYYEG,0.867 ± 0.45
5,NSWQLFYLCSQLIRKSSTLC,0.029 ± 0.37
6,LAVFRCAARYYWNSFCLSRT,0.03 ± 0.21
7,FRSFKNTY,-1.3 ± 0.45
8,VNVITGWCAQELVVRAILEI,0.341 ± 0.4
9,VRCLGWVDHERVRDLCIHSG,-0.414 ± 0.31
10,SIRLYETHSLT,0.885 ± 0.14
11,PKVWGGIHYFHFVTEYSTIS,0.309 ± 0.29
12,CCVRACFPWNVLCKEMIFTR,-0.663 ± 1.6
13,FLPLMIASVSWRL,0.455 ± 0.64
14,KYVIKCTSWVGAMTHSSSKA,0.333 ± 0.24
15,GYPIDGMYKRAALVRMDICF,0.718 ± 0.92
16,SFIYTSPGFCWRDMFDWQVP,0.339 ± 0.32
17,PSMARPAARTHVDNNRWR,-0.051 ± 0.56
18,YLCRRT,0.675 ± 0.63
19,IRSSFMLRCIVSYVPCNTGL,-0.027 ± 1.1
20,QVLSHSKHNIVLDYHLETCG,1.84 ± 0.38
21,RFGWISMYSCSRWHCMRNLY,1.13 ± 0.19
22,MHISWPYYRHDIVRRKSCSA,0.011 ± 0.29
23,YIMILSYAVNKSYFTRLSCN,-0.459 ± 0.67
24,SCARFITTNNQDSRLVASSN,-0.718 ± 0.77
25,RRYWVIIIEVAGSRSVETPV,-0.823 ± 0.51

row,Substance,amyloid nucleation score
1,HCHFIFGGMIGS,-0.144 ± 1.2
2,WGTPLMV,0.31 ± 0.63
3,KWHTRENCFSFLYVYFLMFP,inactive
4,LWLRCLSIAAGIHQ,2.31 ± 0.12
5,NVHSYRSLRLDELVMKSMCE,2.66 ± 0.2
6,AYCGSWLQYL,-0.231 ± 0.76
7,GCDYARPINWCDTPYGSFNL,-2.49 ± 2.4
8,GLGLCRVE,-0.373 ± 0.38
9,HALMTARAFTCPWRMVVKFQ,0.897 ± 0.61
10,PRCNSFNSYCFA,0.224 ± 0.29
11,AESWHVGKS,-0.593 ± 0.59
12,ALVFSALLVFRCGDCAASKA,4.25 ± 0.062
13,HYQMLDAISRSSVYVLSKSR,-0.239 ± 0.29
14,MLLSH,4.34 ± 0.056
15,YNVMYTFLHFAIGTAISRTW,-0.798 ± 0.76
16,WNSFTELRAHMLYHLKKIII,1.72 ± 0.22
17,FDLWLVYVRLPGSHDLDLRA,0.61 ± 0.65
18,NADDISVRTGNTQESLSW,0.275 ± 1.2
19,CMTPS,inactive
20,GTCYGCLLILVCSLFGSTTG,1.12 ± 0.66
21,MYMIWEQGKPCSILDTHTVT,0.598 ± 0.26
22,WCVWFVQISCMVRVGAKLNS,0.184 ± 0.38
23,YVQFCGQHARR,-0.516 ± 1.7
24,RKDRLTIGNRNL,0.73 ± 0.69
25,NYEQYLGCSNTEERSSSCTL,-0.286 ± 1.2
